Columns and labels:
[1] = target: truncated mGluR5 (C-terminal 4 amino acids deleted) expressed in HEK-293 cells (UniProt P31424); assay: bead-linked GST-Homer pull-down from HEK-293 cell extracts, immunoblot
[2] = target: mGluR2 transiently expressed in HEK-293 cells (UniProt P31421 19-872); assay: bead-linked GST-Homer pull-down from extracts of transfected HEK-293 cells, immunoblot
Text: (§1) To measure the binding interaction, mGluR5 and mGluR1a were expressed in HEK-293 cells. Cell extracts were mixed with bead-linked GST-Homer and were then eluted with SDS loading buffer. When the C-terminal 4 amino acids of mGluR5 were deleted, binding of the mGluR5 to Homer was reduced by greater than 70% (FIG. 10D, lanes 3 and 4). […] Neither mGluR2 nor mGluR4 bind Homer protein (FIGS. 10B, 10C).
(§2) For experiments examining specificity of Homer binding to metabotropic glutamate receptors, HEK-293 cells were transiently transfected with mGluR1a, mGluR2, mGluR4 or mGluR5 expression constructs, scraped into PBS+1% Triton X100, sonicated 2×10 seconds, centrifuged at 15,000 g for 10 minutes at 4° C., and pre-cleared. Lysate from half of a 10 cm plate was incubated with 50 μl of beads linked to 250 ng of protein and washed as above. Samples were analyzed by western blot analysis using the appropriate polyclonal mGluR antibody. Deletion constructs of Homer were prepared by PCR and cloned as fusion constructs with GST in pGEX (Pharmacia, Piscataway, N.J.).

[3] = target: mGluR4 transiently expressed in HEK-293 cells (UniProt P31423 33-912); assay: as above
Text: as §1, §2

[4] = target: T1, C-terminal 195 amino acids of mGluR5 encoded by an interacting cDNA of the rat hippocampus library in pPC86 (rat, UniProt P31424 1009-1203); assay: yeast GAL4 two-hybrid screen, selection without leucine, tryptophan and histidine, confirmed by β-galactosidase assay
T1 construct: not shown: GAL4 domain supplied by vector pPC86
Experimental: In experiments carried out in support of the present invention and described in Example 5 herein, the yeast GAL4 two-hybrid system was used to identify binding partners of the rat Homer protein in a rat brain cDNA library (Chevray and Nathans, 1992). A PCR product of the full-length Homer ORF with flanking SmaI sites was subcloned into the yeast expression vector pPC97. A random primed cDNA library was prepared from seizure stimulated adult rat hippocampus and cloned into the yeast expression vector pPC86. The library contains 2×10⁶ independent cDNAs. A total of 1.5×10⁶ clones were screened. Interacting proteins were identified by selection on plates lacking leucine, tryptophan, and histidine, restreaked and confirmed using a β-galactosidase assay.
The full-length Homer ORF with flanking SmaI sites was subdloned into the yeast expression vector pPC97. A random primed cDNA library was prepared from seizure stimulated adult rat hippocampus and cloned into the yeast expression vector pPC86. The library contains 6×10⁶ independent cDNAs and a total of 1.5×10⁶ were screened. Interacting proteins were identified by colony selection on plates lacking leucine, tryptophan, and histidine and confirmed using a β-galactosidase assay (Ausubel, et al., 1992). […]

[5] = target: T2, myc-tagged mGluR5 C-terminus (195 aa) expressed in HEK-293 cells (UniProt P31424 1009-1203); assay: GST-Homer deletion constructs, pull-down of myc-tagged mGluR5 C-terminus, immunoblot for myc
T2 construct: it is put first here; not shown: myc tag
T2 sequence (P31424 1009-1203 limits assumed): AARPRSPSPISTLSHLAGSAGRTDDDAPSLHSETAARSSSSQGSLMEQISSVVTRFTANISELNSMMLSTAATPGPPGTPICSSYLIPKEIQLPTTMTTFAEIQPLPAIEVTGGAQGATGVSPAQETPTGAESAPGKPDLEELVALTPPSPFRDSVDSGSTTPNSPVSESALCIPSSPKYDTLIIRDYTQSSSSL

T1 sequence (P31424 1009-1203): as the sequence (P31424 1009-1203 limits assumed) above
Chain of mGluR2 transiently expressed in HEK-293 cells (P31421 19-872 limits assumed): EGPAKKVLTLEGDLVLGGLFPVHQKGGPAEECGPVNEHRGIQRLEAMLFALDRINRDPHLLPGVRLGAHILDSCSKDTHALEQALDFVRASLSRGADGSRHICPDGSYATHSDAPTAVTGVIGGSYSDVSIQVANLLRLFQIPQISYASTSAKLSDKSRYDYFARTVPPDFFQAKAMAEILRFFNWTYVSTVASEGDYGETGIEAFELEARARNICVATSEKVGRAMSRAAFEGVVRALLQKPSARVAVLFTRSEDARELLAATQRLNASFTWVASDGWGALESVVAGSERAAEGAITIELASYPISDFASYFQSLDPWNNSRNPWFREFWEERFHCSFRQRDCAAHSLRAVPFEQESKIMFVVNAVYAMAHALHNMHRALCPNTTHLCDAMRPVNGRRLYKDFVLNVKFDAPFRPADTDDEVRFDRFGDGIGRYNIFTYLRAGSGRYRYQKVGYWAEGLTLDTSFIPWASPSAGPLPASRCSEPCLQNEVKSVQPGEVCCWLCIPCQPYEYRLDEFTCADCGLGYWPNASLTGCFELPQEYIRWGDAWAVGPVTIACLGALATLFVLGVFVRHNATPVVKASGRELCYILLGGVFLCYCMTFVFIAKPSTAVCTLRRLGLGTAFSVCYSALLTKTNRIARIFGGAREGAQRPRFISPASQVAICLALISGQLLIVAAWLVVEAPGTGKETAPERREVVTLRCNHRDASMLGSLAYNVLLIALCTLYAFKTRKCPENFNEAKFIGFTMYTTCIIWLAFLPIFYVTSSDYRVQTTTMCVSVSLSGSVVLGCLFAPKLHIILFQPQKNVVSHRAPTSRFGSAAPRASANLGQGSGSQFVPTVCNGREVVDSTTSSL
Chain of mGluR4 transiently expressed in HEK-293 cells (P31423 33-912 limits assumed): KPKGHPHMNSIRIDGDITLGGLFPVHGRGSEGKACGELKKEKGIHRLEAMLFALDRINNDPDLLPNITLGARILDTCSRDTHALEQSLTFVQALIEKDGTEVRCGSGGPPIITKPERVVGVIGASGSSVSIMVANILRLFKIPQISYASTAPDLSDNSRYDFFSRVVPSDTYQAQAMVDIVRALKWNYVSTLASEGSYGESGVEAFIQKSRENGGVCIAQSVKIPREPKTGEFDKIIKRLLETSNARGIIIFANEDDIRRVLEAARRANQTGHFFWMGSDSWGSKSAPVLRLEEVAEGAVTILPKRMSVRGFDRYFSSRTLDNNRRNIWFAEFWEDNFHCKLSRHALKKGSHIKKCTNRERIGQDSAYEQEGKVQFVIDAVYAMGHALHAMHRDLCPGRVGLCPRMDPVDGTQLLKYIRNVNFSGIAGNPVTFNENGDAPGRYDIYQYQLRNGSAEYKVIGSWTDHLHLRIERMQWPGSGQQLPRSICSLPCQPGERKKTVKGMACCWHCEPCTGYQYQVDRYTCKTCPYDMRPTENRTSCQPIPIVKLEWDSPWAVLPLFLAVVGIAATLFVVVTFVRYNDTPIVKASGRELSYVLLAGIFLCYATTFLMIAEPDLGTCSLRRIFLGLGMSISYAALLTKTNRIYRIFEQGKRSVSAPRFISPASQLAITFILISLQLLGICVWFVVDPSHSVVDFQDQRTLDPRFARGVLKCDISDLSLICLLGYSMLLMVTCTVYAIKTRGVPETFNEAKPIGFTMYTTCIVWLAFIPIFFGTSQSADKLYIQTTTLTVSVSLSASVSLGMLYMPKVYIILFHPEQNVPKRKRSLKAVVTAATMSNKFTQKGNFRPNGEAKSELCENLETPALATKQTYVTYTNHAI

B1: GST-Homer fusion protein (full length rat Homer, 1-186, fused to glutathione-S-transferase) (other)
chain: MGEQPIFSTRAHVFQIDPNTKKNWVPTSKHAVTVSYFYDSTRNVYRIISLDGSKAIINSTITPNMTFTKTSQKFGQWADSRANTVYGLGFSSEHHLSKFAEKFQEFKEAARLAKEKSQEKMELTSTPSQESAGGDLQSPLTPESINGTDDERTPDVTQNSEPRAEPAQNALPFSHRYTFNSAIMIK
notes: Bacterially expressed from pGEX; GST is put first as usual for pGEX; also called Homer GST fusion protein; Homer-GST fusion protein; not shown: glutathione-S-transferase (GST) encoded by the bacterial vector pGEX (Pharmacia)
**Q.** How did the reduction of binding against full length mGluR5 [1] turn out when B1 was run?
**A.** > 70%

**Q.** Does B1 bind [2]?
**A.** no binding

**Q.** Does B1 bind [3]?
**A.** no binding

B2: full-length Homer ORF in yeast expression vector pPC97 (GAL4 two-hybrid fusion) (other)
chain: MGEQPIFSTRAHVFQIDPNTKKNWVPTSKHAVTVSYFYDSTRNVYRIISLDGSKAIINSTITPNMTFTKTSQKFGQWADSRANTVYGLGFSSEHHLSKFAEKFQEFKEAARLAKEKSQEKMELTSTPSQESAGGDLQSPLTPESINGTDDERTPDVTQNSEPRAEPAQNALPFSHRYTFNSAIMIK
notes: also called Homer (two-hybrid bait); not shown: GAL4 domain supplied by vector pPC97
**Q.** Does B2 bind [4]?
**A.** binds

B3: GST-Homer deletion construct, Homer fragment 109-186 (N-terminal 108 amino acids deleted) (other, not shown: a dimerising Fc or GST; large carriers; small tags and cut ends)
chain: AARLAKEKSQEKMELTSTPSQESAGGDLQSPLTPESINGTDDERTPDVTQNSEPRAEPAQNALPFSHRYTFNSAIMIK
notes: GST put first as usual for pGEX
**Q.** Does B3 bind [5]?
**A.** no binding

— patent publication US20040229274A1 (Johns Hopkins, published 2004)
